According to paper PMC12770486:

Assays:
RAD51 [1] = target: T1, RAD51 (Homo sapiens, UniProt Q06609 1-339); test: FLIM
RAD51 [2] = target: T1, RAD51; test: BLI

T1 sequence (Q06609 whole entry): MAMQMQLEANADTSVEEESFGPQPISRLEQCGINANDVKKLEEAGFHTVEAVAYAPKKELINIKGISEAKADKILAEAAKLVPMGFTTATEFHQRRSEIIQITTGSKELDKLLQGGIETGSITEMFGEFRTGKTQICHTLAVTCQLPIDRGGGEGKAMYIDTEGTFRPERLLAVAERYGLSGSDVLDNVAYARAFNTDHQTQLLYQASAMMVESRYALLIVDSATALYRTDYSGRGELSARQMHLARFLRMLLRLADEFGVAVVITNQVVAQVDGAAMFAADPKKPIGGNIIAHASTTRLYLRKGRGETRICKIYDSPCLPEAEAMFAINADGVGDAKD

| Binder | Kd (RAD51 [2]) [nM] | also measured |
| --- | --- | --- |
| GCCCCGCCCCGCCCC (ssDNA, locked bases at both ends stated for in-cell assays; unclear for FLIM) [rcApt Texas Red] |  | binding result (RAD51 [1]): no binding |
| GGGGGGGGGGGGGGG (ssDNA) [Apt2] | 138 ± 4 |  |
| CGGCGCGGCGCGGCG (ssDNA) [Apt3] | 188 ± 13 |  |
| GGGGCGGGGCGGGGC (ssDNA, locked bases at both ends stated for in-cell assays; unclear for FLIM) [Apt1 Texas Red] |  | binding result (RAD51 [1]): binds |
| CGGGCGGGCGGG (ssDNA) [Apt5] | 936 ± 39 |  |
| GCGGGGGCGGGG (ssDNA) [Apt4] | 413 ± 11 |  |
| GGGGCGGGGCGGGGC (ssDNA) [Apt1] | 116 ± 14 |  |
| GCCCCGCCCCGCCCC (ssDNA) [rcApt] |  | binding result (RAD51 [2]): no binding |
